Experiments:
[1] = system: human HEp-2 cells challenged with vesticular stomatitis virus (Indiana Strain); test: cytopathic effect (CPE) assay of interferon biological (antiviral) activity; assay type: cell-based; conditions: NIH reference units
Description: Ultrapure natural interferon alpha was prepared by incubating human peripheral blood cultures with Sendai virus. The culture supernatant was purified over an anti-interferon alpha column (NK-2 sepharose). […] The biological activity of interferons alpha, beta and gamma were determined by the cytopathic effect (CPE) assay on human HEp-2 cells challenged with vesticular stomatitis virus (Indiana Strain). All titers were calibrated against the NIH reference standards for alpha (#Ga23-902-503) and gamma (Gg 23-901-530) interferons. All titers are expressed as NIH reference units.

[2] = target: T1, Daudi cell receptor sites (Homo sapiens, UniProt P17181+P48551); test: Competition experiments: displacement of 125I-IFN-alpha-2 from Daudi cells; assay type: binding; conditions: 100 fold excess of unlabeled IFN
T1 construct: endogenous in cells; host or cells: Daudi (human lymphoblastoid) cells
T1 sequence (P48551 27-515): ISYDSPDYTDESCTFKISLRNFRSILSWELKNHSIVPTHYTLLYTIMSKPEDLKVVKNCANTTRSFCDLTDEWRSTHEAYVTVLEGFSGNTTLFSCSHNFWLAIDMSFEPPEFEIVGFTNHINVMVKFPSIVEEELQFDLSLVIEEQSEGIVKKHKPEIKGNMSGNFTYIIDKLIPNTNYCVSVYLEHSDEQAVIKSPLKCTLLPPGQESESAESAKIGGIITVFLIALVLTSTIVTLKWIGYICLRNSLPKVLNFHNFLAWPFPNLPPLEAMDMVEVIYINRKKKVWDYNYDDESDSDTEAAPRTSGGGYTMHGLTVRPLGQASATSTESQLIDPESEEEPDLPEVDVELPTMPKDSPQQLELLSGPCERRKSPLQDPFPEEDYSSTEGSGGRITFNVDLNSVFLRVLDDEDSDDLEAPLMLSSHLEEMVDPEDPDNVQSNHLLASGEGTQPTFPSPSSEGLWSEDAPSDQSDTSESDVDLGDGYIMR
T1 sequence (P17181 28-557): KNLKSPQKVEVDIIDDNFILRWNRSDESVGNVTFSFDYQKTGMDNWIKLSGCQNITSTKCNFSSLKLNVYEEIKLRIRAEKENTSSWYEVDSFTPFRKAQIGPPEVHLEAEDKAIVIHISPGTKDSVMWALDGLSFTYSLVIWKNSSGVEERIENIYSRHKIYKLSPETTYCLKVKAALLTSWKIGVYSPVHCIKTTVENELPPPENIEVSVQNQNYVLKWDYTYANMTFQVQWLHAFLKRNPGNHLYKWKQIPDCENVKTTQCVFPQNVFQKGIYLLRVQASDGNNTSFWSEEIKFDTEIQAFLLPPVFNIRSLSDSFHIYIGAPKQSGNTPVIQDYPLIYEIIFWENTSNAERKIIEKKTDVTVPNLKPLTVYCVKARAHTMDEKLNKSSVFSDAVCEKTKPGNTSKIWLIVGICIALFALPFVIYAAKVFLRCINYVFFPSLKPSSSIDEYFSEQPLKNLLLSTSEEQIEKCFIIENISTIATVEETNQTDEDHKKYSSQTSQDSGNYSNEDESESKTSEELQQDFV

B1: IFN gamma: Human IFN gamma produced in human peripheral blood cultures containing lymphocytes stimulated with phytohemagglutinin, purified by affinity chromatography (protein, UniProt P01579 24-161, looked up)
Interferon gamma: QDPYVKEAENLKKYFNAGHSDVADNGTLFLGILKNWKEESDRKIMQSQIVSFYFKLFKNFKDDQSIQKSVETIKEDMNVKFFNSNKKKRDDFEKLTNYSVTDLNVQRKAIHELIQVMAELSPAAKTGKRKRSQMLFRG
specific activity [1]: 2×10^7 U/rag of protein
reduction in the binding of 125I-IFN-alpha2 for Daudi cells [2]: does not compete

Source: patent US5516515A, “Separation of alpha interferon receptor proteins and antibodies therefor” (priority 1990, dated 1996)
